Data: PMC2193136

Legend:
[1] = biological target: HLA-DR2 (DRA1*0101/DRB1*1501) molecules, detergent-solubilized, purified from S2 cells (human); assay: competition peptide-binding assay
[2] = biological target: HLA-DR2 (DRA1*0101/DRB1*1501) molecules, detergent-solubilized, purified from S2 cells (human); assay: peptide binding inhibition assay

MBP 85–99 analogue 85 (E→A) (peptide)
IC50 [1]: 7 nM

MBP 85–99 analogue 92 (F→Y) (peptide)
IC50 [1]: 12 nM

MBP 86–99 truncated peptide (row label printed as (85–99))
IC50 [1]: 3 nM

MBP 85–99 analogue 93 (K→A) (peptide)
IC50 [1]: 4 nM

MBP 85–99 analogue 87 (P→A) (peptide)
IC50 [1]: 10 nM

MBP 85–96 truncated peptide
IC50 [1]: 20 nM

HLA-DQw6 peptide corresponding to residues 43–58
IC50 [2]: 70 nM

MBP 85–99 analogue 95 (I→A) (peptide)
IC50 [1]: 4 nM

MBP 85–99 analogue 86 (N→A) (peptide)
IC50 [1]: 7 nM

human PLP peptide PLP 95–116
IC50 [2]: 1480 nM

MBP 85–99 analogue 96 (V→A) (peptide)
IC50 [1]: 4 nM

MBP 88–99 truncated peptide
IC50 [1]: 30 nM

MBP 85–99 analogue 94 (N→A) (peptide)
IC50 [1]: 4 nM

human PLP peptide PLP 40–60
IC50 [2]: 200 nM

MBP 85–99 peptide
IC50 [1]: 5 nM

MBP 85–99 analogue 88 (V→A) (peptide)
IC50 [1]: 10 nM

MBP 87–99 truncated peptide
IC50 [1]: 5 nM

MBP 85–99 analogue 99 (R→A) (peptide)
IC50 [1]: 5 nM

MBP 85–98 truncated peptide
IC50 [1]: 4 nM

MBP 85–99 analogue 91 (F→A) (peptide)
IC50 [1]: 10 nM

MBP 85–99 analogue 89 (V→A) (peptide)
IC50 [1]: 50 nM

MBP 85–99 analogue 90 (H→A) (peptide)
IC50 [1]: 10 nM

MBP 85–99 analogue 97 (T→A) (peptide)
IC50 [1]: 4 nM

MBP 85–99 analogue 98 (P→A) (peptide)
IC50 [1]: 5 nM

MBP 85–97 truncated peptide
IC50 [1]: 15 nM
